From patent publication US20240043504A1

Target: SARS-CoV-2 spike protein variant Y483A (Table 27), on VSV pseudoparticles (SARS-CoV-2) (UniProt P0DTC2)
Assay: cell-based or functional assay

Substance mAb10987 (antibody) has a Relative neutralization (5 µg/ml, Vero cells) of 99%.
